Assay results as given in patent US20140178935A1 (AVEO PHARMACEUTICALS, published 2014).

T1: recombinant mouse-human-mouse (mhm) chimeric HGF protein containing the human V495-L585 HGF sequence disposed … (mouse-human-mouse chimera, UniProt Q08048 56-728)
T1 construct: CHO supernatant was used; also called mhm chimera (V495-L585); MHM chimera (495-585)
T1 chain: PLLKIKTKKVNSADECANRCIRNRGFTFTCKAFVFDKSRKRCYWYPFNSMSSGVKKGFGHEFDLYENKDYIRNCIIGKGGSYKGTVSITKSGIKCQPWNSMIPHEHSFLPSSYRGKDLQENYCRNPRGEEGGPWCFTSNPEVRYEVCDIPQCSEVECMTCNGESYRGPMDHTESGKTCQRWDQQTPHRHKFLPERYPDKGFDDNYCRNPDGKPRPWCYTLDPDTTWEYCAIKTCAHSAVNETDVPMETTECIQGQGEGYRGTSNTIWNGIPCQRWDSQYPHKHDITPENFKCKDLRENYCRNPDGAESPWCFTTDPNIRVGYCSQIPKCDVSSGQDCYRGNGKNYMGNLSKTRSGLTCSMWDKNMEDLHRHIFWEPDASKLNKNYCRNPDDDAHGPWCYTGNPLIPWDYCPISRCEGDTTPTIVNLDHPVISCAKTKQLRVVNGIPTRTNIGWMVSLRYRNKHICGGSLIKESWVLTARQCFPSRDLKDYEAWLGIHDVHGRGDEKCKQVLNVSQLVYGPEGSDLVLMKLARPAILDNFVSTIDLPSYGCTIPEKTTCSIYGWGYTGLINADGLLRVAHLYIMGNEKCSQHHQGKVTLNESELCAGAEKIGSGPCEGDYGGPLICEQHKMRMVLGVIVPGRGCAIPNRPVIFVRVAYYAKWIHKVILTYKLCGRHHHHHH


Legend:
[1] = molecular target: T2, recombinant human HGF (R&D Systems, Catalog No. 294-HGN-025) (human, UniProt P14210 32-728); experiment: cell-based or functional assay
T2 sequence (P14210 32-728 limits assumed): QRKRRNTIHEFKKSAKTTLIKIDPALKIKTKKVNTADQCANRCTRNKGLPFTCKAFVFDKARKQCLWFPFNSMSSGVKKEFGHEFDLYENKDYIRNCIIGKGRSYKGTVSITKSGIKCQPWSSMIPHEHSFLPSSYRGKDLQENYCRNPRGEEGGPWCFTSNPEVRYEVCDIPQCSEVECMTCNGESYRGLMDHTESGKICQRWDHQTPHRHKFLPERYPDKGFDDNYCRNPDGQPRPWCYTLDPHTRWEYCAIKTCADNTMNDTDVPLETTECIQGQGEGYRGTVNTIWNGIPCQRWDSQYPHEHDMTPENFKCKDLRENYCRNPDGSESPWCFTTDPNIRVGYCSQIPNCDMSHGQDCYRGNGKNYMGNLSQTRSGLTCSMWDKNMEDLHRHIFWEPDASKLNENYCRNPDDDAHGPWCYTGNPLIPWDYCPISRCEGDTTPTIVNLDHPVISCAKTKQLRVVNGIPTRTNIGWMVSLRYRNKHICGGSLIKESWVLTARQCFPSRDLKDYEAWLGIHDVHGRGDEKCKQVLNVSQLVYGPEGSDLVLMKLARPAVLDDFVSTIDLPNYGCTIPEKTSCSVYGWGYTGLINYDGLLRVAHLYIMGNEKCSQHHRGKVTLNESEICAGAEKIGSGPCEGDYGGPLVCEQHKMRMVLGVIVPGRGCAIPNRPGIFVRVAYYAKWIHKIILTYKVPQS

[2] = molecular target: T2, recombinant human HGF (R&D Systems, …); experiment: cell-based or functional assay; remark: listed apart in the source
[3] = molecular target: hHGF-Fc G555E (recombinant hHGF protein containing a glycine to glutamate substitution at position 555) (human); experiment: SPR, antibody immobilized, HGF protein injected, 25 C
Chain of hHGF-Fc G555E (recombinant hHGF protein containing a glycine to glutamate substitution at position 555) (human) (chain, as listed by the source G555E G555E limits assumed): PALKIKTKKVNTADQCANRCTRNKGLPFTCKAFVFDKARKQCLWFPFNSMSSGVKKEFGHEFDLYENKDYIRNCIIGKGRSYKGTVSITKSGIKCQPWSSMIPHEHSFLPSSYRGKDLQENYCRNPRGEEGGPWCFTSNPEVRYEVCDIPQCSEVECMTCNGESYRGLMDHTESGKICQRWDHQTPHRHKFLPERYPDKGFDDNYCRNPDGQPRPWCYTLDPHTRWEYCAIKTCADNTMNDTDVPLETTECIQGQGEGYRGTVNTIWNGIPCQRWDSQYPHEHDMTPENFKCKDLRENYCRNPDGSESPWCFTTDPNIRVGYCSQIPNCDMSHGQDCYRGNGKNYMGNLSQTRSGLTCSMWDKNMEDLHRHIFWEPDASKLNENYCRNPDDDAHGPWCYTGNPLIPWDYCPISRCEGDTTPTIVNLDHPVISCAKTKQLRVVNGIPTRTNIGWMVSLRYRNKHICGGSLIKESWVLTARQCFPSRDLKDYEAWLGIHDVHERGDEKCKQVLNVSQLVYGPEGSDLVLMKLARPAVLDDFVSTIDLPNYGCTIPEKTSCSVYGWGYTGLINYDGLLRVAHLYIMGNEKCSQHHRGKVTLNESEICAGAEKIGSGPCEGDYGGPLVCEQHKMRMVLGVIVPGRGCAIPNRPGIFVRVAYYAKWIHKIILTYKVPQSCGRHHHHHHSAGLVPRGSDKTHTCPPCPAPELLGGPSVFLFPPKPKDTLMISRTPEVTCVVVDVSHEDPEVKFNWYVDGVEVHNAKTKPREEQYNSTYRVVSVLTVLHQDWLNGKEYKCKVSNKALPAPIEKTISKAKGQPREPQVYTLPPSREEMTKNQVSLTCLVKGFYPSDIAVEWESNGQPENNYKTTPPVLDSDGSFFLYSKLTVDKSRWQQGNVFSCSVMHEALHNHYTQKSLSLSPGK
Procedure: (§1) Each antibody was immobilized on a carboxymethylated dextran CM5 sensor chip (BIAcore, Catalog No. BR-1006-68) by amine coupling (BIAcore, Catalog No. BR-1000-50) using a standard coupling protocol according to manufacturer's instructions.
(§2) Analyses were performed at 25° C. using PBS (GIBCO, Catalog No. 14040-133) containing 0.05% surfactant P20 (BIAcore, Catalog No. R-1000-54), 2 mg/mL BSA (EMD, Catalog No. 2930) and 10 mg/mL CM-Dextran Sodium salt (Fluka, Catalog No. 86524) as running buffer. […] The resulting binding was determined as resonance units (RU) over baseline 30 seconds after the end of injection. […] Non-specific binding was monitored by comparing binding to a control surface where mouse IgG (Rockland, Catalog No. 010-0102) was immobilized using the same amine coupling procedure.

[4] = molecular target: hHGF-Fc C561R (recombinant hHGF protein containing a cysteine to arginine substitution at position 561) (human); experiment: as above
Chain of hHGF-Fc C561R (recombinant hHGF protein containing a cysteine to arginine substitution at position 561) (human) (chain, as listed by the source C561R C561R limits assumed): as the sequence (chain, as listed by the source G555E G555E limits assumed) above, with E501G, C507R counted along it
Procedure: as §1, §2

[5] = molecular target: T3, recombinant mouse HGF (R&D Systems) (mouse, UniProt Q08048 33-728); experiment: as above
T3 construct: Bought protein, construct not described; also called rmHGF (R&D Systems); murine HGF
T3 sequence (Q08048 33-728 limits assumed): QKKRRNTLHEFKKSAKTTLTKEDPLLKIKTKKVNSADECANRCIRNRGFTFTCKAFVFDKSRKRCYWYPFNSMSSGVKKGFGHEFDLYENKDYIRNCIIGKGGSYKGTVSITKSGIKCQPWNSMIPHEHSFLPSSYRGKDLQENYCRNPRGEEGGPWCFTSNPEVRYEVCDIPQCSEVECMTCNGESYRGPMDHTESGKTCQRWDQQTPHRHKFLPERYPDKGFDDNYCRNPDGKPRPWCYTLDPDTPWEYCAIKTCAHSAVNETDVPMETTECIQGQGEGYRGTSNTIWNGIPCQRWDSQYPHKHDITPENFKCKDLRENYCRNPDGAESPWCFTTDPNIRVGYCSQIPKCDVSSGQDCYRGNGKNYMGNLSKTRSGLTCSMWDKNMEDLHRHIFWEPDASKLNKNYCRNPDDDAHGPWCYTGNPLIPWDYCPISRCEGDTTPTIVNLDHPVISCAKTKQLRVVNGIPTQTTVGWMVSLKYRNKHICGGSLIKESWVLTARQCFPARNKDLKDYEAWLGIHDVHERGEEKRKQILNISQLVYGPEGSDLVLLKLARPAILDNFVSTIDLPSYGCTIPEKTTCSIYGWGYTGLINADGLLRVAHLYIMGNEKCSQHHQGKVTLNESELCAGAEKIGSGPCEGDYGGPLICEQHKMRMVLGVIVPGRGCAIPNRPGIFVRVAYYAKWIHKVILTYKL
Procedure: as §1, §2

[6] = molecular target: T1, recombinant mouse-human-mouse (mhm) …; experiment: as above
Procedure: as §1, §2

[7] = molecular target: T2, recombinant human HGF (R&D Systems, …); experiment: SPR, antibody captured by anti-mouse Ig, HGF injected, 25 C
Procedure: Rabbit anti-mouse immunoglobulins (BIAcore, Catalog No. BR-1005-14) were immobilized on carboxymethylated dextran CM5 sensor chips (BIAcore, Catalog No. BR-1006-68) by amine coupling (BIAcore, Catalog No. BR-1000-50) using a standard coupling protocol according to manufacturer's instructions. The analyses were performed at 25° C. using PBS (GIBCO, Catalog No. 14040-133) containing 0.05% surfactant P20 (BIAcore, Catalog No. BR-1000-54), 2 mg/mL BSA (EMD, Catalog No. 2930), and 10 mg/mL CM-Dextran Sodium salt (Fluka, Catalog No. 86524) as running buffer.
The antibodies were captured in an individual flow cell at a flow rate of 10 μL/min. Injection time was variable for each antibody to yield approximately 20 RU of antibody captured for each cycle. […] The dissociation phase was monitored for 15 or 90 minutes, depending on concentration. The surface then was regenerated with 10 mM Glycine-HCl, pH 1.7 (BIAcore, Catalog No. BR-1003-54) injected for 3 minutes at a flow rate of 60 μL/min before another cycle was initiated.
Kinetic parameters were determined using the kinetic function of the BIAevalutation software with reference subtraction.

[8] = molecular target: T2, recombinant human HGF (R&D Systems, …); experiment: competition ELISA (DELFIA): antibody inhibits c-Met binding to plate-coated HGF
Procedure: The plates then were blocked with 200 μL of 5% non-fat dry milk in PBS for 1 hour at room temperature. […] 100 μL of sample per well was transferred to the assay plate and incubated overnight at 4° C.
The resulting plates then were washed three times with PBS-0.1% Tween 20, and incubated for 1 hour at room temperature with Eu-labeled Streptavidin (Wallac, Catalog No. 1244-360) diluted 1:1000 in DELFIA assay buffer (Wallac, Catalog No. 4002-0010). The resulting plates were washed 3 times with DELFIA wash solution (Wallac, Catalog No. 4010-0010) and incubated with 100 μL/well DELFIA enhancement solution (Wallac #4001-0010) for 15 minutes at room temperature with agitation.
The plates were read on Victor³V instrument (Perkin Elmer) using the Europium method.

| Binder | IC50, neutralization of HGF stimulated BrdU incorporation in 4 MBr-5 cells [1] [nM] | EC50, inhibition of HGF-stimulated c-Met phosphorylation in PC-3 cells, Average of Two Trials [2] [nM] | binding result [3] | binding result [4] | binding result [5] | binding result [6] | Kd [7] [nM] | koff [7] [s⁻¹] | kon [7] [M⁻¹ s⁻¹] | IC50 [8] [nM] |
| --- | --- | --- | --- | --- | --- | --- | --- | --- | --- | --- |
| anti-hHGF monoclonal antibody 2F8 (antibody, mouse IgG1, kappa, V domains shown, Murine IgG1 kappa from hybridoma) VH: QVQLKQSGAELVRPGTSVKMSCKASGYTFTTYYIHWVNQRPGQGLEWIGKIGPGSGSTYYNEMFKDKATLTVDTSSSTAYMQLSSLTSDDSAVYFCARRGLGRGFDYWGQGTTLTVSS VL: DIVLTQSPASLAVSLGQRATISCKASQSVDYDGNSYINWYQQKPGQPPKVLIYVASNLESGIPARFSGSGSGTDFTLNIHPVEEEDAATYYCQQSIEDPPTFGAGTKLELKR | 19.2 | 1.39 | binds | binds | binds | no binding |  |  |  | 5.36 |
| anti-hHGF monoclonal antibody 1A3 (antibody, mouse IgG1, kappa, V domains shown, Murine IgG1 kappa from hybridoma) VH: EVQLVESGGGLVQPGGSLKLSCAASEFTFSNYYMSWVRQTPEKRLQWVAYISPGGGSSYYPASVKGRFTISRDNAKNTLYLQMSSLKSEDTAMYYCARQGDGYYGDYAMDYWGQGTSVTVSS VL: DIQMTQSPASLSVSVGETVTITCRASENIYSNLAWYQQKQGKSPQLLVYAATNLADGVPSRFSGSGSGTQFSLKINSLQSEDFGTYYCQHFWGTPYTFGGGTKLEIKR | 4.69 | 0.684 | binds | binds | no binding | no binding | 0.0301 | 5.2e-05 | 1.7e+06 | 5.65 |

The remaining lines, values ahead:

| IC50, neutralization of HGF stimulated BrdU incorporation in 4 MBr-5 cells [1] [nM] | EC50, inhibition of HGF-stimulated c-Met phosphorylation in PC-3 cells, Average of Two Trials [2] [nM] | binding result [3] | binding result [4] | binding result [5] | binding result [6] | Kd [7] [nM] | koff [7] [s⁻¹] | kon [7] [M⁻¹ s⁻¹] | IC50 [8] [nM] | Binder |
| --- | --- | --- | --- | --- | --- | --- | --- | --- | --- | --- |
| 36.1 | 1.01 | binds | binds | no binding | no binding | 0.017 | 3.9e-05 | 2e+06 |  | anti-hHGF monoclonal antibody 3B6 (antibody, mouse IgG1, kappa, V domains shown, Murine IgG1 kappa from hybridoma) VH: QVQLQQSGAELVRPGSSVKISCKASGYVFSSYWMNWVKQRPGQGLEWIGQIYPGDGDSNYNGNFKGKATLTADKSSSTAYMQLSSLTSEDSAVYFCASQLGLRENYFDYWGQGTTLTVSS VL: DIKMTQSPSSMYASLGERVTITCKASQDIKSYLSWFQQKPGKSPKTLIYRVNRLVDGVPSRFSGSGSGQDSSLTITSLENEDMGIYYCLQYDEFPFTFGGGTKLEIKR |
| 30.3 | 2 | binds | binds | no binding | no binding | 0.103 | 0.00016 | 1.6e+06 | 5.26 | anti-hHGF monoclonal antibody 3A12 (antibody, mouse IgG1, kappa, V domains shown, Murine IgG1 kappa from hybridoma) VH: EVQLVESGGGLVQPGGSLKISCAASGFTFSNYFMSWVRQTPEKRLEWVAYISSGGGSTYYPDSVKGRFTISRDNAKNTLYLQMNSLKSEDTAMYYCVRQGDGYYGDYAMDYWGQGTSVTVSS VL: DIQMTQSPASLSVSVGETVTITCRASENIYINLAWYQQKQGKSPQLLVHAATKLADGVPSRFSGSGSGTQYSLKINSLQSEDFGSYYCQHFWGTPYTFGGGTKLEIKR |
| 51.1 | 2.28 | binds | binds | no binding | no binding |  |  |  | 5.66 | anti-hHGF monoclonal antibody 3D11 (antibody, mouse IgG1, kappa, V domains shown, Murine IgG1 kappa from hybridoma) VH: QVQLKESGPGLVAPSQSLSITCTVSGFSLTSYSLHWVRQPPGKGLEWLGVIWAGGNTNYNSSLMSRLTIRKDNSKSQVFLKMNSLQTDDTAMYYCARERFAYWGQGTLVTVSA VL: QIVLTQSPAIMSAYPGEKVTMTCSASSSVSYMHWYQQKSGTSPKRWIYDTSKLASGVPARFSGSGSGTSYSLTISSMEAEDAATYYCQQWSSNPLTFGAGTKLELKR |
